These results are taken from publication PMC4838890, “Dynamic and flexible H3K9me3 bridging via HP1β dimerization establishes a plastic state of condensed chromatin” (Nature Communications, 2016).

One assay addresses H3KC9me3 oligonucleosome. The assay is described as follows: ITC, H3KC9me3 oligonucleosome. The settings on record: for Kd: read-out: Kd (apparent dissociation constant). It counts as binding, Xenopus laevis. An excerpt:
Mononucleosomes were reconstituted on a 187 bp DNA fragment containing the ‘601' sequence flanked on each site by a linker of 20 bp[55]. Oligonucleosomes were reconstituted on a 12 × 200 bp × 601 template. Plasmids carrying the respective inserts were purified using a Giga kit (Qiagen, Hilden, Germany). Templates for reconstitution were released from plasmids by restriction digest with BsoBI for mononucleosomes and a mix of DdeI, BfuCI, HaeII and EcoRI for oligonucleosomes. To separate vector backbone from DNA used for chromatin assembly stepwise precipitation with polyethylene glycol (PEG) 6000/0.5 M NaCl was carried out (final PEG concentration 2–9% and 20% (w/v)). DNA pellets were washed with 70% (v/v) ethanol and dissolved in water. Double stranded, short, biotinylated DNA linkers were ligated to the DNA template before chromatin reconstitution.
ITC measurements were performed on a iTC200 calorimeter (Microcal, Malvern, UK) at 25°C in binding buffer (10 mM triethanolamine (pH 7.5), 20 or 150 mM NaCl, 0.1 mM EDTA). Reaction heats were recorded by sequences of 37 injections of 1.8 mM hHP1β, spaced at 120 s intervals, into 250 μl of 60 μM H3 peptides, nucleosomes or oligonucleosomal arrays under constant stirring at 1,000 r.p.m. (injection #1–10: 0.5 μl each; injection #11–32: 1 μl each; injection #33–37: 2 μl each). Heats of dilution, obtained by the titration of hHP1β into buffer, were substracted from raw data before analysis. Raw data were integrated, normalized and the apparent heat change (Δq) of the reaction was plotted against the molecular ratio using the Origin software. For the determination of apparent enthalpy changes (ΔHapp), the molar association constant (KA), and the stoichiometry (n) of the interaction, non-linear least-square fitting of the Δq values was performed by the Origin software using a binding model of one set of identical binding sites.
Figure S4 Hiragami-Hamada et al. […]
Supplementary Figure 4: Quantitative analysis of interaction of hHP1β with H3K9me3-peptides and
(a) ITC measurements of H3K9me3-peptide/hHP1β WT interaction at 20 mM NaCl (left) and 150 mM
NaCl (right). Upper panels, raw data of heat release upon stepwise injection of recombinant protein into
solution of peptide; lower panels, plots of integrated heats of protein injections vs. molar ratio of hHP1β
WT per peptide calculated by MicroCal software. Injections #1-10: 0.5 µl; injections #11-32: 1 µ l;
(b) ITC measurements as in (a) but with H3K C9me3- oligonucleosomal arrays. […]
In general terms: In ITC the heat of successive injections is recorded.

The next assay addresses T1, H3K9me3 peptide (Homo sapiens, UniProt P68431).
T1 construct: C-terminally biotinylated histone H3 peptides (aa 1–20)
The assay is described as follows: SPR, immobilized H3K9me3 peptide. The format is binding. The conditions noted are these: for association kinetics: H3K9me3 surfaces of different density; for dissociation (release from matrix): more pronounced at higher H3K9me3 surface densities. The procedure: SPR measurements were performed on a Biacore 2000 instrument (GE Healthcare, Buckinghamshire, UK) at 298 K in 10 mM triethanolamine (pH 7.5), 150 mM NaCl, 0.1 mM EDTA, 1 mM DTT, 0.005% (v/v) Tween-20. Biotinylated ligands were immobilized on streptavidin-coated sensor chips SA (GE Healthcare, Buckinghamshire, UK). Before immobilization, sensor chips were conditioned as described by the manufacturer. To obtain low surface densities (5–24 RU), 5 nM biotinylated H3 peptide was injected at a low rate of 10 μl min^−1 using varying contact times. High surface densities (>700 RU) were prepared by injecting […] peptide (10 μl min^−1) until the SA surface was saturated. Peptide-containing chips were regenerated by applying three short pulses of 0.05% (w/v) SDS followed by an injection of 1.5 M NaCl for baseline stabilization. For binding assays, hHP1β proteins were injected at […] (serial twofold dilutions) for 2 min (30 μl/min). Dissociation was recorded for up to 5 min. A streptavidin surface without ligands served as reference. In addition, blank runs were performed for double referencing. Data evaluation was performed by steady-state analysis assuming a Langmuir 1:1 binding model using BIAevaluation 4.1 and Prism 5.04 (GraphPad, CA, USA) software. Binding to the unmodified peptides was analysed with maximum binding (RUmax) set to the corresponding values obtained with the modified peptides.
Figure S8 Hiragami-Hamada et al.
20 30 one site-specific 20 30 one site-specific […]
time [s] concentration [ μM] time [s] concentration [ μM]
40 two site-specific 40 one site-specific […]
time [s] concentration [ μM]
Supplementary Figure 8: hHP1β binds nucleosomes as dimer.
(a) Dynamic light scattering (DLS) analysis of recombinant hHP1β WT (blue) and I161A (red).
(b) SPR response traces of injection of hHP1β WT into Biacore cells containing biotinylated H3K9me3-peptide immobilized on a sensory chip via covalently coated streptavidin. Immobilized peptide was at 24
RU. Injection series are from 0.024 to 50 µM protein concentration.
(c) Blot of signal over concentration of the titration in (b) to deduce an apparent Kd value. Best fitting was achieved by one site-specific binding model.
(d ) Same analysis as in (b) but with hHP1β I161A.
(e) Blot of signal over concentration of the titration in (d) to deduce an apparent Kd value. […]
(also on this page, place not known: dimer . hHP1 β H3K9me3 - se nsory ( b) site -specific ( b) hHP1 β ( d) site -specific hHP1 β modifi ed H3K9me3 -mononucleosomes H3 -tails -30 -50 -8 -4 200 -10 110 -50 -10 -30 [μM] [μM] -10 190 150 -10 110 200 -10 110 μl/min μl/min μl/min -50 150 response [RU] response [RU] response [RU] response [RU] response [RU] [μM] 10 50 response [RU]40 0 0 [μM] 10 30 50 response [RU] 40 0 0 40 [μM] 10 30 50 response [RU] 140 40 0 120 0 40 response [RU] response [RU] response [RU] Kd Kd μM Kd μM 0.8 0.6 0.4 0.2 0 1 1.0 0.8 0.6 0.4 0.2 0.0 mass fraction)

Another assay has as its system mouse fibroblasts. The assay is described as follows: Subnuclear distribution of EGFP fusion proteins. The settings on record: GFP fusions transiently expressed, n >100. It counts as cell-based. An excerpt:
Supplementary Figure 11: Subnuclear distribution of hHP1 β wild type and mutant proteins .
(a) The indicated proteins fused to EGFP were transiently expressed in mouse fibroblast cells.
Representative fluorescence confocal images are shown. DNA was stained with DAPI. Scale bar […]
(b) Quantification of the subnuclear distribution of the hHP1β WT and mutant proteins analyzed as in ( a) by visual inspection. EGFP signal in each transfected cell was categoriz ed into ‘dotted’ (see WT distribution in panel a) or ‘diffuse’ (see distribution of I161A in panel a). n >100 for each condition.
(1 picture or pasted object on this page, not shown here)

Where [1] appears, read: SPR titration 0.024 to 50 µM, peptide at 24 RU, one site-specific binding model, read-out: apparent Kd (Supplementary Fig. 8c,e).
Where [2] appears, read: SPR, 150 mM NaCl, pH 7.5, 298 K, steady-state, WT value based on fitting to a one site-specific binding model, read-out: Kd (apparent dissociation constant).

Where two headings read alike, the source gives them in different places.

Consider “hHP1β WT: recombinant human heterochromatin protein 1β (GenBank NM_001127228), 185 aa”, for which the “Kd (apparent dissociation constant)” value at H3KC9me3 oligonucleosome (20 mM NaCl, pH 7.5, 25°C, NB, not binding) is recorded as “could not detect any binding”. Further, the Kd is 11 ± 2 µM at H3KC9me3 oligonucleosome (150 mM NaCl, pH 7.5, 25°C); 0.73 µM with H3K9me3 peptide (setting [1]); 0.7 ± 0.1 µM with H3K9me3 peptide (setting [2]). Moreover, the “stronger binding to the H3K9me3 matrix compared with the I161A protein” value with H3K9me3 peptide (SPR titration) is listed as 10 fold. Also, the binding mode entry in the assay with H3K9me3 peptide (SPR, H3K9me3 peptide and mononucleosome surfaces) is “fully consistent with a bivalent interaction mode”. Further, the association kinetics entry in the assay with H3K9me3 peptide (SPR) was “very fast association kinetics”. Besides, in the assay with H3K9me3 peptide (SPR), the “dissociation (release from matrix)” value is “released more slowly”. The subnuclear distribution entry in the assay on mouse fibroblasts is on record as “largely localized to characteristic areas of pericentromeric heterochromatin enriched in H3K9me3”.
For “hHP1β I161A: CSD point mutant of hHP1β incapable of dimerization”, in the assay with H3KC9me3 oligonucleosome (150 mM NaCl), the “reduced interaction with H3KC9me3 oligonucleosomes compared with hHP1β WT” value is 12 fold. Moreover, the Kd on H3KC9me3 oligonucleosome (150 mM NaCl, pH 7.5, 25°C) is 132 ± 24 µM; in the assay with H3K9me3 peptide (setting [1]), 7.5 µM; with H3K9me3 peptide (setting [2]) it was 7 ± 0.4 µM. Moreover, the association kinetics entry with H3K9me3 peptide (SPR) was “very fast association kinetics”. In the assay with H3K9me3 peptide (SPR), the “dissociation (release from matrix)” value is “dissociated rapidly from the H3K9me3 ligand”. In addition, the subnuclear distribution result in the assay with mouse fibroblasts was “diffuse distribution”.
